Target: T1, SETD3 (Homo sapiens, UniProt Q86TU7)
T1 construct: GST (cleaved yes); made in house; host or cells: Escherichia coli BL21(DE3) CodonPlus
T1 sequence (Q86TU7 1-594): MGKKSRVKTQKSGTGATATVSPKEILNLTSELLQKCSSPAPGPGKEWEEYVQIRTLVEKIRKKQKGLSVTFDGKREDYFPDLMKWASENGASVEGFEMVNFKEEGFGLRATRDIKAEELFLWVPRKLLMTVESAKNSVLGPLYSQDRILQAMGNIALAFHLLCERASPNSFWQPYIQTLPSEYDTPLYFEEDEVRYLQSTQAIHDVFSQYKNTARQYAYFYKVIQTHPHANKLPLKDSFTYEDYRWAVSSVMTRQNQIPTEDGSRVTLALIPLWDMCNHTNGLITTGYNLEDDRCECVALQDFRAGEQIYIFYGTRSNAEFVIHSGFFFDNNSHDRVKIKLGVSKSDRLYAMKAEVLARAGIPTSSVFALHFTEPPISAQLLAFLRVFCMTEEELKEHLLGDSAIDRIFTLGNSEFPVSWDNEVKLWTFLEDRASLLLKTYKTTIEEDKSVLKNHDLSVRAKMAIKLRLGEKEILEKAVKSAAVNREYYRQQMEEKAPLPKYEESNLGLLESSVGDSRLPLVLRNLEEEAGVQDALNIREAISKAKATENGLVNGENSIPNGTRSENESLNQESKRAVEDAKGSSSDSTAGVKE
Test: SETD3 activity time course under conditions optimized for H73(66-80) (Supplementary Fig. 3a)
Format: biochemical
Settings: pH 8.0, room temperature; for CH3 transferred: [E]=0.18 µM, [SAM]=40 µM, [S]=20 µM
Experimental: Recombinant human SETD3 (pXC2003) was expressed as a GST-fusion[22] in Escherichia coli BL21(DE3) CodonPlus^TM cells (Stratagene). The SETD3 mutants at residue 255 (N255A; pXC2093 and N255V; pXC2094) were generated with Q5 Site-Directed Mutagenesis Kit (New England Biolabs), confirmed by sequencing and the same protocol for expression and purification were followed. Briefly, the purification was conducted in a BIO-RAD NGC^TM system using a three-column chromatography of glutathione-sepharose, HiTrap Q-HP and Superdex 200. The GST tag was removed by PreScisson Protease (purified in-house). The purified SETD3 proteins at a concentration ~25–35 mg/ml were kept at −80 °C in storage buffer for future use [20 mM Tris (pH 8.0), 200 mM NaCl, 5% glycerol, and 0.5 mM tris (2-carboxyethyl) phosphine (TCEP)]. […]
conditions optimized for H73(66-80) (red line): [E]=0.18 µM, [SAM]=40 µM, [S]=20 µM, pH 8.0 at room temperature for indicated reaction time. b, SETD3 activity on H73(66-80) at two difference temperatures under the conditions of [E]=0.18 µM, [SAM]=40 µM, [SH7 3]=20 µM at pH 8. 0 for 20 min reaction. c, SETD3 activity on K73 (66-80 ) at room temperature (~22 °C) and 37 °C under the conditions of increased amounts of [E]=15 µM, [SAM]=100 µM and [S K73]=700 µM at pH 8.0 for overnight reaction. Data represent the mean ± SD of N number of independent determinations (N=2 in panels a and b and N=4 in panel c) performed in duplicate. […]

K73(66–80): K73-containing (H73K) actin peptide, residues 66–80 (TLKYPIEKGIVTNWD; UniProt P60709 66-80, looked up, variant H73K)
CH3 transferred (0 min, replicate 1): 0 µM
CH3 transferred (0 min, replicate 2): 0 µM
CH3 transferred (10 min, replicate 1): 0.00913 µM
CH3 transferred (10 min, replicate 2): 0.005151 µM
CH3 transferred (20 min, replicate 1): 0.005187 µM
CH3 transferred (20 min, replicate 2): 0.000604 µM
CH3 transferred (30 min, replicate 1): 0.002842 µM
CH3 transferred (30 min, replicate 2): -0.00142 µM
SETD3 activity under conditions optimized for H73 peptide ([E] = 0.18 µM, [SAM] = 40 µM, [S] = 20 µM): no activity

— PMC6684798, “Structural basis for the target specificity of actin histidine methyltransferase SETD3” (Nature Communications, 2019)
